According to publication PMC10175746:

Biological target: pyruvate kinase isoform M2 (PKM2) (mouse (endogenous in Th17 cells)) (UniProt P52480)

Chain of pyruvate kinase isoform M2 (PKM2), P52480 1-531 (enzyme; other documents disagree on this pair) (P52480 whole entry, canonical isoform): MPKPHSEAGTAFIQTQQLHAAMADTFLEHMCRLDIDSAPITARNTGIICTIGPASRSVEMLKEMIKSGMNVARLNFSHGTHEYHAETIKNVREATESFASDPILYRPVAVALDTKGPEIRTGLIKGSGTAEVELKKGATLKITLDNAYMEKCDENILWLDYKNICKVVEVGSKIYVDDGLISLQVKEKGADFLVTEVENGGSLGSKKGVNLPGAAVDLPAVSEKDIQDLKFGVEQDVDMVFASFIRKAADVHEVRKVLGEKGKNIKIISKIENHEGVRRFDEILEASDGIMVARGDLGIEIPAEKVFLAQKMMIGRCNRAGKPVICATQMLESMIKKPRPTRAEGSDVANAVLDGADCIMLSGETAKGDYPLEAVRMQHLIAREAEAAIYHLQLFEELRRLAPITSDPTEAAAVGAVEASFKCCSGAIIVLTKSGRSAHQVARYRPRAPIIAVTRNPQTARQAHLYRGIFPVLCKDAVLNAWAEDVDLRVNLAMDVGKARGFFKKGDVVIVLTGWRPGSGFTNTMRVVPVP

stoichiometry N: 4
Substance: pyruvate kinase isoform M2 (PKM2), P52480 1-531 (enzyme; other documents disagree on this pair)
